T1: mouse CD33 Fc fusion protein (mouse, UniProt Q63994 18-240, limits assumed)
T1 construct: also called mCD33-Fc
T1 sequence: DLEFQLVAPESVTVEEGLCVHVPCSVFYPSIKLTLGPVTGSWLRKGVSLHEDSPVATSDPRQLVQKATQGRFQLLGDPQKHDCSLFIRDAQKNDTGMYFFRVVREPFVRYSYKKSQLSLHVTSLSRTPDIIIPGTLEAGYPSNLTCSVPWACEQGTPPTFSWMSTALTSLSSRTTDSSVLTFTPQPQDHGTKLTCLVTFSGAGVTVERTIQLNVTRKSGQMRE


Experiments:
human CD33 [1] = biological target: T2, human CD33 (human, UniProt P20138 18-364); assay: cell-based or functional assay
[2] = biological target: T1, mouse CD33 Fc fusion protein; assay: ForteBio BLI or MSD-SET
[3] = biological target: T3, human CD33 Fc fusion protein (human, UniProt P20138 18-259); assay: ForteBio BLI or MSD-SET, IgG, avid;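 note: Anti-CD33 IgG affinity by BLI, IgG captured on AHQ sensors with antigen in solution and a one-to-one kinetic fit, or by MSD solution equilibrium titration with quadratic fit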
T3 construct: also called hCD33-Fc; human CD33/Fc chimera (R&D Systems)

human CD33 [4] = biological target: T2, human CD33; assay: flow cytometry, human primary T cells;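 note: binding of anti-CD33 antibodies at 10 ug/ml to human primary T cells, 1 h on ice, detected with PE-labelled secondary antibody, read as flow cytometry MFI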
human CD33 [5] = biological target: T2, human CD33; assay: flow cytometry, human primary monocytes; design: reference not given here;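 note: binding of anti-CD33 antibodies at 10 ug/ml to human primary monocytes, 1 h on ice, detected by PE-labelled secondary antibody, flow cytometry readout as mean fluorescence intensity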
human CD33 [6] = biological target: T2, human CD33; assay: flow cytometry, human primary macrophages;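 note: binding of CD33 antibodies at 10 µg/ml to human primary macrophages, 1 h on ice, detected with PE-labelled secondary antibody by flow cytometry, reported as MFI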
human CD33 [7] = biological target: T2, human CD33; assay: flow cytometry, human primary dendritic cells;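 note: binding of anti-CD33 antibodies (10 ug/ml, 1 h on ice) to human primary dendritic cells, detected with a PE-labelled secondary antibody, reported as flow cytometry MFI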
Experimental: Initial characterization of CD33 antibodies involved determining their ability to bind CD33 expressed on a CHO cell line, on human primary monocytes, human primary macrophages, human primary dendritic cells, and on human primary T cells. Cells were harvested, plated at 10⁶/ml in a 96 well plate, and incubated in 100 ul PBS containing 2% FBS, 2 mM EDTA and 10 ug/ml Mab and Fc blocking reagent for 1 hour in ice. Cells were washed twice and incubated in 100 ul PBS containing 2% FBS, 2 mM EDTA and 5 ug/ml PE-conjugated secondary antibody for 30 minutes on ice. Cells were washed twice in cold PBS and analyze by flow cytometry on a BD FACS Canto. Data analysis and calculation of MFI values was performed with FlowJo (TreeStar) software version 10.0.7.

[8] = biological target: T4, human monomeric His tagged CD33 protein (human, UniProt P20138 18-259); assay: ForteBio BLI or MSD-SET, IgG, monomeric antigen;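 note: BLI: antibodies captured on AHQ sensors, 100 nM antigen association 5 min, dissociation 5 min, 1:1 fit. MSD-SET: antigen fixed at 50 pM, antibody titrated, quadratic fit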
T4 construct: also called hCD33-His

[9] = biological target: T3, human CD33 Fc fusion protein; assay: RBC adhesion to plate-bound CD33-Fc; antibody 0.5 ug/ml;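 note: Plate-coated CD33-Fc preincubated 1 h with antibody, then red blood cells added for 1 h at room temperature, adherent cells lysed and quantified via peroxidase activity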
Experimental: (§1) Briefly, 5 ug/ml CD33-Fc was coated overnight at RT in 96 well Immunolon plates, then washed with PBS, blocked for one hour with binding buffer (PBS containing %0.25 BSA 1 mM CaCl₂). CD33 antibodies (0.5 ug/ml or 1.0 ug/ml) or Fabs (25 ug/ml) were bound for one hour at RT with gentle rocking. After removal of unbound antibody, red blood cells were added to each well at a concentration of 3.0×10⁶ cells per ml and incubated at RT for one hour. Unbound RBCs were then carefully washed off 3× with PBS, and water was added to each well for hypotonic lysis of bound RBCs. The plate was transferred to −80° C. for 10 minutes, followed by 37° C. for 15 minutes. Bound RBCs were detected by peroxidase activity, followed by 2N sulfuric acid to stop the reaction.

[10] = biological target: T3, human CD33 Fc fusion protein; assay: RBC adhesion to plate-bound CD33-Fc; antibody 1.0 ug/ml;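 note: red blood cells adhering to plate-coated CD33-Fc after 1 h antibody pretreatment, then 1 h at room temperature, bound cells read as peroxidase activity after lysis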
Experimental: as §1

T2 sequence (P20138 18-364): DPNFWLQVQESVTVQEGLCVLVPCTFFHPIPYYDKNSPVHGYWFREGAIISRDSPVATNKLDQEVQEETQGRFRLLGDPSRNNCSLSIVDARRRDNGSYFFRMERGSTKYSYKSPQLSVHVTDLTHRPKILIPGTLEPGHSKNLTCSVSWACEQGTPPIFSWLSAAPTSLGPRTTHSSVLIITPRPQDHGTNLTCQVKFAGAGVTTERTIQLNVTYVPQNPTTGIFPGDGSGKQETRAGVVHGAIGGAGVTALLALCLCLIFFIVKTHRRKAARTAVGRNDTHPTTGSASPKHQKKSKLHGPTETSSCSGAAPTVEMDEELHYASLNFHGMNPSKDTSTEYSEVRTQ
T3 sequence (P20138 18-259 limits assumed): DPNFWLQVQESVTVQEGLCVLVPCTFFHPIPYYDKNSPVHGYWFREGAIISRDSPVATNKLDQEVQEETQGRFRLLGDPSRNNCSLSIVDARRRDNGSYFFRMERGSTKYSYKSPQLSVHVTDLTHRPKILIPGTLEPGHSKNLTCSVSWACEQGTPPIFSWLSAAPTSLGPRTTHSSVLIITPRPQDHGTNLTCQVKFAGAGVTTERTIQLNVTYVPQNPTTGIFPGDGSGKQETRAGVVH
T4 sequence (P20138 18-259 limits assumed): as above

Percent CD33 Surface Expression, DC % CD33 (human CD33 [1]) [%] | Percent CD33 Surface Expression, Macrophage % CD33 (human CD33 [1]) [%] | Percent CD33 Surface Expression, Monocyte % CD33 (human CD33 [1]) [%] | binding result [2] | Kd [3] [nM] | T cell MFI (human CD33 [4]) | Monocyte MFI (human CD33 [5]) | Macrophage MFI (human CD33 [6]) | DC MFI (human CD33 [7]) | Kd [8] [nM] | Percent RBC Binding to CD33 [9] [%] | Percent RBC Binding to CD33 [10] [%] | Binder
20.7 | 41.8 | 37.1 | no binding (tested: 100 nM) | 1.8 | 234 | 162 | 867 | 1490 | 7.67 | 15.8 | 10.6 | C-57 (antibody, V domains shown, human IgG1) VH: EVQLVESGGGLVQPGGSLRLSCAASGFTFSSYSMNWVRQAPGKGLEWVSYISSSSSTIYYADSVKGRFTISRDNAKNSLYLQMNSLRAEDTAVYYCARGGEGRPYLDIWGQGTMVTVSS VL: not shown
24.7 | 41.5 | 37.5 | no binding (tested: 100 nM) | 1.6 | 191 | 140 | 598 | 1130 | 9.16 | 18.2 | 10.7 | C-59 (antibody, V domains shown, human IgG1) VH: QVQLVQSGAEVKKPGASVKVSCKASGYTFTSYYMHWVRQAPGQGLEWMGVINPSGGSTSYAQKFQGRVTMTRDTSTSTVYMELSSLRSEDTAVYYCAREGANYDSSGLDAWGQGTLVTVSS VL: not shown
28.8 | 42.7 | 43.1 | no binding (tested: 100 nM) | 1.54 | 193 | 165 | 752 | 1230 | 6.95 | 13 | 8.98 | C-24 (antibody, V domains shown, human IgG1) VH: QVQLVQSGAEVKKPGASVKVSCKASGYTFTSYYMHWVRQAPGQGLEWMGVINPSGGSTSYAQKFQGRVTMTRDTSTSTVYMELSSLRSEDTAVYYCARESQYYDVHGMDVWGQGTTVTVSS VL: DIQMTQSPSSLSASVGDRVTITCRASQSISSYLNWYQQKPGKAPKLLIYAASSLQSGVPSRFSGSGSGTDFTLTISSLQPEDFATYYCQQSVTPPLTFGGGTKVEIK
37.8 | 46.3 | 39.1 | no binding (tested: 100 nM) | 1.67 | 414 | 113 | 602 | 1300 | 10.9 | 15.9 | 12.6 | C-27 (antibody, V domains shown, human IgG1) VH: QVQLVQSGAEVKKPGASVKVSCKASGYTFTSYYMHWVRQAPGQGLEWMGVINPSGGSTSYAQKFQGRVTMTRDTSTSTVYMELSSLRSEDTAVYYCARESQYYDVHGMDVWGQGTTVTVSS VL: DIQMTQSPSSLSASVGDRVTITCRASQSISSYLNWYQQKPGKAPKLLIYAASSLQSGVPSRFSGSGSGTDFTLTISSLQPEDFATYYCQQHYDIPLTFGGGTKVEIK
26.8 | 45.4 | 41.7 | no binding (tested: 100 nM) | 1.66 | 221 | 151 | 775 | 1040 | 9.33 | 10.7 | 12.9 | C-60 (antibody, V domains shown, human IgG1) VH: QVQLVQSGAEVKKPGASVKVSCKASGYTFTSYYMHWVRQAPGQGLEWMGVINPSGGSTSYAQKFQGRVTMTRDTSTSTVYMELSSLRSEDTAVYYCARESQYYDVHGMDVWGQGTTVTVSS VL: DIQLTQSPSSLSASVGDRVTITCRASQSISSYLNWYQQKPGKAPKLLIYAASSLQSGVPSRFSGSGSGTDFTLTISSLQPEDFATYYCQQSVHVPITFGGGTKVEIK
26.9 | 44.5 | 31.2 | no binding (tested: 100 nM) | 1.62 | 216 | 161 | 852 | 1330 | 7.67 | 11.5 | 9.33 | C-65 (antibody, V domains shown, human IgG1) VH: QVQLVQSGAEVKKPGASVKVSCKASGYTFTSYYMHWVRQAPGQGLEWMGVINPSGGSTSYAQKFQGRVTMTRDTSTSTVYMELSSLRSEDTAVYYCARESQYYDVHGMDVWGQGTTVTVSS VL: DIQMTQSPSSLSASVGDRVTITCRASQSISSYLNWYQQKPGKAPKLLIYAASSLQSGVPSRFSGSGSGTDFTLTISSLQPEDFATYYCQQQYTLPPTFGGGTKVEIK
22.8 | 50.8 | 38.3 | no binding (tested: 100 nM) | 2.06 | 242 | 122 | 797 | 1310 | 13.4 | 13.3 | 9.73 | C-61 (antibody, V domains shown, human IgG1) VH: QVQLVQSGAEVKKPGASVKVSCKASGYTFTSYYMHWVRQAPGQGLEWMGVINPSGGSTSYAQKFQGRVTMTRDTSTSTVYMELSSLRSEDTAVYYCARESQYYDVHGMDVWGQGTTVTVSS VL: EIVLTQSPGTLSLSPGERATLSCRASQSVSSSYLAWYQQKPGQAPRLLIYGASSRATGIPDRFSGSGSGTDFTLTISRLEPEDFAVYYCQQYYGLPLTFGGGTKVEIK
83 | 98.6 | 91 | no binding (tested: 100 nM) | 2.83 | 46 | 131 | 871 | 1040 | 8.94 | 102 | 98.1 | C-6 (antibody, V domains shown, human IgG1) VH: not shown VL: DIQMTQSPSSVSASVGDRVTITCRASQGIDSWLAWYQQKPGKAPKLLIYAASSLQSGVPSRFSGSGSGTDFTLTISSLQPEDFATYYCQQASAHPPWTFGGGTKVEIK
59.1 |  | 71.9 | no binding (tested: 100 nM) | 4.61 | 561 | 115 | 752 | 526 | 30.9 | 31.6 | 10.1 | C-68 (antibody, V domains shown, human IgG1) VH: QVQLQESGPGLVKPSQTLSLTCTVSGGSISSGGYYWSWIRQHPGKGLEWIGNIYYSGSTYYNPSLKSRVTISVDTSKNQFSLKLSSVTAADTAVYYCARDLPNSGSPGSDYFDYWGQGTLVTVSS VL: EIVLTQSPGTLSLSPGERATLSCRASQSVSSSYLAWYQQKPGQAPRLLIYGASSRATGIPDRFSGSGSGTDFTLTISRLEPEDFAVYYCQQYDNYPPTFGGGTKVEIK
